The values that follow come from article PMC12624006.

In the assay the target is Lhcp-2 polypeptide of the prasinophyte light-harvesting complex Lhcp (Ostreococcus tauri) (Ostreococcus tauri). The assay is described as follows: cryo-EM structure.

“Lhcp-2 polypeptide of the prasinophyte light-harvesting complex Lhcp (Ostreococcus tauri) (natural protein)” came in with a stoichiometry N of 3.

The term stoichiometry N denotes the number of molecules, sites or subunits per partner or assembly.
